The source of these data is patent US20250043005A1 (GENEQUANTUM HEALTHCARE SUZHOU, published 2025).

B1: Ab0033 (antibody, human IgG1, kappa, N297A, V domains shown)
VH: QVQLQESGPGLVKPSETLSLTCTVSGYSITSGYNWHWIRQFPGNGLEWMGYIHHSSITNYNPSLKSRITISRDTSKNQFSLKLSSVTAADTATYYCAREGYDYDWFAYWGQGTLVTVSS
VL: DIVLTQSPDFQSVTPKEKVTITCRASQSISNNLHWYQQKPDESPKLLIKYASQSISGIPSRFSGSGSGTDFTLTINSVEAEDFAMYFCQQSKSWPFTFGQGTRLEIKR
notes: Signal peptides are not part of the purified protein; also called antibody moiety Ab0033; derived from Ab0002 (3F2)
B2: Recombinant hIL21R protein (receptor)
chain: not shown
notes: also called human IL21 receptor; Hu-IL21R

In test [1] the target is B2. The test is described as follows: ELISA, recombinant hIL21R coated at 0.5 ug/mL, detection with anti-human-IgG (H+L)-HRP, OD450. How it is done:
(§1) The binding activities of the fusion proteins to human IL21 receptor (hIL21R or Hu-IL21R) were determined using ELISA. Recombinant hIL21R protein were diluted using coating buffer (1×PBS) to 0.5 μg/mL and coated to an ELISA plate at 4° C. overnight. The plate was blocked with 5% slim milk powder in coating buffer at 37° C. for 1 h. […] Finally, 1:5000 diluted anti-human-IgG (H+L)-HRP was added. After an incubation at 37° C. for 1 h, TMB substrate was added for color development. The data was collected using a microplate reader.

The target of test [2] is T1, Recombinant hPD-L1 protein (Acrobiosystems, PD1-H5253) (human, UniProt Q9NZQ7 19-238).
T1 construct: also called human PD-L1
T1 sequence (Q9NZQ7 19-238 limits assumed): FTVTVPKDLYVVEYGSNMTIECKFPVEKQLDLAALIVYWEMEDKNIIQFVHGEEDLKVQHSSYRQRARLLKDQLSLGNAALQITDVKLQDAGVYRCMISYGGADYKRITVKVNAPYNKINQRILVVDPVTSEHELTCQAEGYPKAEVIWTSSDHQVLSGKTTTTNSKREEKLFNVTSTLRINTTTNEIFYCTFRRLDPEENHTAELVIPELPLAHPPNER
The test is described as follows: ELISA, recombinant hPD-L1 (Acrobiosystems PD1-H5253) coated at 0.5 ug/mL, detection with anti-human-IgG (H+L)-HRP, OD450. How it is done: The binding activities of the fusion proteins to human PD-L1 (hPD-L1) were determined using ELISA. […] The plate was blocked with 5% slim milk powder in the coating buffer at 37° C. for 1 h. […] Finally, 1:5000 diluted anti-human-IgG (H+L)-HRP was added. After an incubation at 37° C. for 1 h, TMB substrate was added for color development. The data was collected using a microplate reader.

The target of test [3] is T2, His-tagged human IL21R (hIL21R-His) (human, UniProt Q9HBE5 20-232, limits assumed).
T2 construct: not shown: His tag
The test is described as follows: SPR (Biacore T200), Ab0033 captured on Protein A chip, hIL21R-His as analyte. How it is done: (§2) The Biacore T200 biosensor is equipped with Sensor Chip Protein A. The proteins (diluted to 1 μg/mL) to be tested were injected at 10 μL/min into the Biacore T200 biosensor for 50 sec, in order to reach the required protein density (about 300 RU). Then His-tagged human IL21R (hIL21R-His, 200 nM) or human PD-L1 (hPD-L1-His, 100 nM) were injected at 30 μL/min into the system for 180 sec. The dissociation was monitored for 600 sec. After each cycle, glycine buffer pH 1.7 (30 μL/min, 30 sec) was used to regenerate the chip.

For test [4], the target named is T1, Recombinant hPD-L1 protein …. The experiment in a line: ELISA, recombinant hPD-L1 coated at 0.5 ug/mL, detection with anti-human-IgG (H+L)-HRP, OD450. How it is done: Recombinant hPD-L1 was diluted in coating buffer (1×PBS) to 0.5 μg/mL and coated to an ELISA plate at 4° C. overnight. The plate was blocked with 5% slim milk powder in coating buffer at 37° C. for 1 h. […] Finally, 1:5000 diluted anti-human-IgG (H+L)-HRP was added. After an incubation at 37° C. for 1 h, TMB substrate was added for color development. The data was collected using a microplate reader.

In test [5] the target is T3, His-tagged human PD-L1 (hPD-L1-His) (human, UniProt Q9NZQ7 19-238, limits assumed).
T3 construct: not shown: His tag
T3 sequence (Q9NZQ7 19-238 limits assumed): as above
The experiment in a line: SPR (Biacore T200), Ab0033 captured on Protein A chip, hPD-L1-His 100 nM as analyte, 1:1 Langmuir fit. How it is done: as §2
Data were processed with Biacore T200 evaluation software 3.0. The binding kinetics were analyzed by globally fitting the data with the 1:1 Langmuir binding model to obtain the association rate (kₒₙ) and dissociation rate (koff). The affinity (KD) was calculated using the formula: KD=koff/kₒₙ.

In the next test the target is T4, LC0030-1 (Homo sapiens (Human), UniProt P0DOX7 1-214; P0DOX5 2-449 = IgG part).
T4 construct: Antibody-cytokine fusion (immunocytokine) made by Sortase A conjugation; also called fusion protein prepared from Ab0030 containing one hIL21 (isoform 1); DAR1
The test is described as follows: ELISA, recombinant hIL21R coated at 0.5 ug/mL, detection with anti-human-IgG (H+L)-HRP, OD450. How it is done:
as §1

With B1, the binding result in test [1] is recorded as “no binding (tested: about 40 nM)”; in test [3], “no binding (tested: 200 nM)”. The “EC50 (read off the curve)” value was roughly 0.08 nM in test [2] and roughly 0.1 nM in test [4]. Moreover, binding in test [5] was put at a Kd of 0.608 nM. This molecule also registered a koff in test [5] of 0.0012 s⁻¹. Besides, the kon in test [5] was found to be 1.98e+06 M⁻¹ s⁻¹.

On to B2, for which the binding result with LC0030-1 was “binds”.
